Results taken from publication PMC12747129 (Science (New York, N.Y.), 2023).

Target: the molecule itself
Assay: cryo-EM structure

B1: E. coli MraY (EcMraY), wild type (enzyme)
chain: MLVWLAEHLVKYYSGFNVFSYLTFRAIVSLLTALFISLWMGPRMIAHLQKLSFGQVVRNDGPESHFSKRGTPTMGGIMILTAIVISVLLWAYPSNPYVWCVLVVLVGYGVIGFVDDYRKVVRKDTKGLIARWKYFWMSVIALGVAFALYLAGKDTPATQLVVPFFKDVMPQLGLFYILLAYFVIVGTGNAVNLTDGLDGLAIMPTVFVAGGFALVAWATGNMNFASYLHIPYLRHAGELVIVCTAIVGAGLGFLWFNTYPAQVFMGDVGSLALGGALGIIAVLLRQEFLLVIMGGVFVVETLSVILQVGSFKLRGQRIFRMAPIHHHYELKGWPEPRVIVRFWIISLMLVLIGLATLKVR
  stoichiometry N: 2
